In the supplement of paper PMC5998384:

How the values were obtained:
HeLa Kyoto [1] = test: solubility change mitosis vs G1/S (difference of NP-40 vs SDS log2 ratios) (log2 ratio difference); higher = more soluble in mitosis
HeLa Kyoto [2] = test: solubility in G1/S (NP-40 vs SDS abundance) (log2 ratio); higher = more soluble; conditions: cell cycle stage: G1/S
HeLa Kyoto [3] = test: thermal stability score vs G1/S (z-score of summed log2 fold changes over temperatures); higher = more thermally stable than in G1/S
HeLa Kyoto [4] = test: melting temperature (median over replicates), in situ; higher = more thermally stable
[5] = cell cycle stage: early G1 (4.5 h after nocodazole release)
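Throughout, for melting temperature (median over replicates), in situ: HeLa Kyoto cells synchronized by double thymidine or nocodazole block, proteins quantified by TMT10plex mass spectrometry, three independent biological replicates.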
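Throughout, for solubility change mitosis vs G1/S (difference of NP-40 vs SDS log2 ratios): synchronized HeLa Kyoto cells (double thymidine block for G1/S, nocodazole release for mitosis), protein amounts in NP-40 versus SDS lysates quantified by mass spectrometry, three biological replicates.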
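Throughout, for solubility in G1/S (NP-40 vs SDS abundance): HeLa Kyoto cells arrested at G1/S by double thymidine block, proteins quantified by TMT10plex mass spectrometry in mild NP-40 versus SDS extracts, three biological replicates.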
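Throughout, for thermal stability score vs G1/S (z-score of summed log2 fold changes over temperatures): synchronized HeLa Kyoto cells, proteins quantified by TMT10plex mass spectrometry, three biological replicates, mitosis taken 0.5 h after nocodazole release, G1/S directly after double thymidine block.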

With “MEAAAVTVTRSATRRRRRQLQGLAAPEAGTQEEQEDQEPRPRRRRPGRSIKDEEEETVFREVVSFSPDPLPVRYYDKDTTKPISFYLSSLEELLAWKPRLEDGFNVALEPLACRQPPLSSQRPRTLLCHDMMGGYLDDRFIQGSVVQTPYAFYHWQCIDVFVYFSHHTVTIPPVGWTNTAHRHGVCVLGTFITEWNEGGRLCEAFLAGDERSYQAVADRLVQITQFFRFDGWLINIENSLSLAAVGNMPPFLRYLTTQLHRQVPGGLVLWYDSVVQSGQLKWQDELNQHNRVFFDSCDGFFTNYNWREEHLERMLGQAGERRADVYVGVDVFARGNVVGGRFDTDKSLELIRKHGFSVALFAPGWVYECLEKKDFFQNQDKFWGRLERYLPTHSICSLPFVTSFCLGMGARRVCYGQEEAVGPWYHLSAQEIQPLFGEHRLGGDGRGWVRTHCCLEDAWHGGSSLLVRGVIPPEVGNVAVRLFSLQAPVPPKIYLSMVYKLEGPTDVTVALELTTGDAGSCHIGGISVLNAETSSRHSLRPLRVPPTKLARWVGRCGRQLSGGWVQHCYEVSLRGCLLLDLLVCFSRPPGSREEESFTCRLGEIQVVDAASLLAPLPQVQAVTISHIRWQPSASEREGPPALLQLSCTLHWSFLLSQVRCFRIHCWGGMSDDSPGRELPRPEMPMFLGLAFATQYRIVDLLVEAAGPGQDRRMEFLVEPVPKEGFRVPQAEWGRAVLLYSAPA [ENGASE]” the “solubility change mitosis (log2)” value (HeLa Kyoto [1]) was -0.0912, the “solubility in G1/S (log2)” value (HeLa Kyoto [2]) was -0.179 and the thermal stability score (HeLa Kyoto [3]; [5]) was 0.438. The thermal stability score (HeLa Kyoto [3]; cell cycle stage: mitosis) was -0.925, the melting temperature (HeLa Kyoto [4]; cell cycle stage: G1/S) was 53.6 °C and the melting temperature (HeLa Kyoto [4]; cell cycle stage: mitosis) was 53.4 °C.
For “MAAAGAAVARSPGIGAGPALRARRSPPPRAARLPRLLVLLAAAAVGPGAGGAARLYRAGEDAVWVLDSGSVRGATANSSAAWLVQFYSSWCGHCIGYAPTWRALAGDVRDWASAIRVAALDCMEEKNQAVCHDYDIHFYPTFRYFKAFTKEFTTGENFKGPDRELRTVRQTMIDFLQNHTEGSRPPACPRLDPIQPSDVLSLLDNRGSHYVAIVFESNSSYLGREVILDLIPYESIVVTRALDGDKAFLEKLGVSSVPSCYLIYPNGSHGLINVVKPLRAFFSSYLKSLPDVRKKSLPLPEKPHKEENSEIVVWREFDKSKLYTVDLESGLHYLLRVELAAHKSLAGAELKTLKDFVTVLAKLFPGRPPVKKLLEMLQEWLASLPLDRIPYNAVLDLVNNKMRISGIFLTNHIKWVGCQGSRSELRGYPCSLWKLFHTLTVEASTHPDALVGTGFEDDPQAVLQTMRRYVHTFFGCKECGEHFEEMAKESMDSVKTPDQAILWLWKKHNMVNGRLAGHLSEDPRFPKLQWPTPDLCPACHEEIKGLASWDEGHVLTFLKQHYGRDNLLDTYSADQGDSSEGGTLARGEEEEKRLTPPEVSHGDRDTQSVRPPGALGPRPALPESLHHSLDGKLQSLDGPGAHKEVGGAAPFLGVDFSSLDMSLCVVLYVASSLFLMVMYFFFRVRSRRWKVKHHHPAV [QSOX2]”, the “solubility change mitosis (log2)” value (HeLa Kyoto [1]) was 0.252, the “solubility in G1/S (log2)” value (HeLa Kyoto [2]) was 0.207 and the thermal stability score (HeLa Kyoto [3]; [5]) was -2.12. For the same sequence, the thermal stability score (HeLa Kyoto [3]; cell cycle stage: mitosis) was -0.982, the melting temperature (HeLa Kyoto [4]; cell cycle stage: G1/S) was 54.7 °C and the melting temperature (HeLa Kyoto [4]; cell cycle stage: mitosis) was 54.9 °C.
For “MASSRASSTQATKTKAPDDLVAPVVKKPHIYYGSLEEKERERLAKGESGILGKDGLKAGIEAGNINITSGEVFEIEEHISERQAEVLAEFERRKRARQINVSTDDSEVKACLRALGEPITLFGEGPAERRERLRNILSVVGTDALKKTKKDDEKSKKSKEEYQQTWYHEGPNSLKVARLWIANYSLPRAMKRLEEARLHKEIPETTRTSQMQELHKSLRSLNNFCSQIGDDRPISYCHFSPNSKMLATACWSGLCKLWSVPDCNLLHTLRGHNTNVGAIVFHPKSTVSLDPKDVNLASCAADGSVKLWSLDSDEPVADIEGHTVRVARVMWHPSGRFLGTTCYDRSWRLWDLEAQEEILHQEGHSMGVYDIAFHQDGSLAGTGGLDAFGRVWDLRTGRCIMFLEGHLKEIYGINFSPNGYHIATGSGDNTCKVWDLRQRRCVYTIPAHQNLVTGVKFEPIHGNFLLTGAYDNTAKIWTHPGWSPLKTLAGHEGKVMGLDISSDGQLIATCSYDRTFKLWMAE [PRPF4]”, the “solubility change mitosis (log2)” value (HeLa Kyoto [1]) was 0.223, the “solubility in G1/S (log2)” value (HeLa Kyoto [2]) was -0.454 and the thermal stability score (HeLa Kyoto [3]; [5]) was -0.546. The thermal stability score (HeLa Kyoto [3]; cell cycle stage: mitosis) was -0.96, the melting temperature (HeLa Kyoto [4]; cell cycle stage: G1/S) was 49.9 °C and the melting temperature (HeLa Kyoto [4]; cell cycle stage: mitosis) was 49.5 °C.
For “MAELQMLLEEEIPSGKRALIESYQNLTRVADYCENNYIQATDKRKALEETKAYTTQSLASVAYQINALANNVLQLLDIQASQLRRMESSINHISQTVDIHKEKVARREIGILTTNKNTSRTHKIIAPANMERPVRYIRKPIDYTVLDDVGHGVKWLKAKHGNNQPARTGTLSRTNPPTQKPPSPPMSGRGTLGRNTPYKTLEPVKPPTVPNDYMTSPARLGSQHSPGRTASLNQRPRTHSGSSGGSGSRENSGSSSIGIPIAVPTPSPPTIGPENISVPPPSGAPPAPPLAPLLPVSTVIAAPGSAPGSQYGTMTRQISRHNSTTSSTSSGGYRRTPSVTAQFSAQPHVNGGPLYSQNSISIAPPPPPMPQLTPQIPLTGFVARVQENIADSPTPPPPPPPDDIPMFDDSPPPPPPPPVDYEDEEAAVVQYNDPYADGDPAWAPKNYIEKVVAIYDYTKDKDDELSFMEGAIIYVIKKNDDGWYEGVCNRVTGLFPGNYVESIMHYTD [ABI1]”, the “solubility change mitosis (log2)” value (HeLa Kyoto [1]) was -0.104, the “solubility in G1/S (log2)” value (HeLa Kyoto [2]) was 0.313 and the thermal stability score (HeLa Kyoto [3]; [5]) was -0.724. For the same sequence, the thermal stability score (HeLa Kyoto [3]; cell cycle stage: mitosis) was -0.695, the melting temperature (HeLa Kyoto [4]; cell cycle stage: G1/S) was 51.1 °C and the melting temperature (HeLa Kyoto [4]; cell cycle stage: mitosis) was 51.4 °C.
